PMC10355822
Where “and” joins values, the source holds several entries; their conditions need not be identical. Equal entries are not always repeated.

Experiments:
[1] = biological target: M. polysiphoniae SPARTA (MapSPARTA) complex of MapAgo and MapTIR-APAZ (Maribacter polysiphoniae); assay: mass photometry
[2] = biological target: M. polysiphoniae SPARTA (MapSPARTA) complex of MapAgo and MapTIR-APAZ (Maribacter polysiphoniae); assay: cryo-EM structure
[3] = biological target: M. polysiphoniae SPARTA (MapSPARTA) complex of MapAgo and MapTIR-APAZ (Maribacter polysiphoniae); assay: cryo-EM structure; remark: listed apart in the source

**Q.** How did the stoichiometry N [1] turn out when “M. polysiphoniae SPARTA (MapSPARTA) complex of MapAgo and MapTIR-APAZ” was run?
**A.** 2 and 4

**Q.** What about the stoichiometry N [2] of the same substance?
**A.** 4

**Q.** And the stoichiometry N [3]?
**A.** 2
